The results in this text go back to PMC6377630, “NapM enhances the survival of Mycobacterium tuberculosis under stress and in macrophages” (Communications Biology, 2019).

Data set [1] deals with NapM (Mycobacterium tuberculosis H37Ra). The data set can be described thus: EMSA. The settings on record: pH and temperature not stated.
Data set [2] has as its system DnaA (Mycobacterium tuberculosis H37Ra). As to the kind of experiment: EMSA. The settings on record: pH and temperature not stated. (In EMSA bound probe runs differently from free probe, usually more slowly.)

The Kd is a measure of binding affinity in units of concentration. As for oriC fragment, the figures for the Kd in data set [1] and in data set [2] were 458 nM and 60.5 nM, respectively.
